Consider 4 substances from US7098012.

As usually defined, the Ki is the equilibrium dissociation constant of an inhibitor or competing ligand from its target. High values mean lower affinity, low ones higher affinity.

The test system of data set [1] is DNA demethylase (DNA dMTase) purified from A549 nuclear extract (Homo sapiens). Particulars: Km, 37 C, buffer L.
Data set [2] has the same test system. In words: inhibition. The following applies: 5mC at CpG; oligonucleotide sequence only as image; preparation of enzyme not stated.

Like-named read-outs stand apart in the source and are kept apart here.

Substance “SssI-methylated pBluescript SK(+) plasmid” showed an activity in data set [1] (5mC at all CpG, Vmax 40.42 pmol/h) of 3.3 nM.

In turn, “double stranded CmG oligonucleotide inhibitor” registered a Ki in data set [2] of 0.05 µM. This counts as double-digit nanomolar.

The substance fully methylated poly[mdCpdG]n came in with an activity in data set [1] (5mC at all C of CpG, Vmax 340 pmol/h) of 2.5 nM.

For hemimethylated [dCpdG]n*[mdCpdG]n, in data set [1] (5mC on one strand, Vmax 402 pmol/h), the activity came to 6 nM.
